In PMC4941734, “Structural and dynamics studies of a truncated variant of CI repressor from bacteriophage TP901-1” (Scientific Reports, 2016):

Legend:
[1] = biological target: CI∆58, truncated CI repressor from bacteriophage TP901-1 (residues 1–122) (bacteriophage TP901-1) (UniProt O48503); experiment: SEC; HiLoad 26/60 Superdex 75; native molecular weight estimated by comparison with globular protein standards
[2] = biological target: CI∆58, truncated CI repressor from bacteriophage TP901-1 (residues 1–122) (bacteriophage TP901-1) (UniProt O48503); experiment: native MS; apo CI∆58 6 μM in 250 mM ammonium acetate, pH 6.8; nano-ESI, quadrupole time-of-flight
[3] = biological target: T1, CI∆58 (CI repressor, C-terminally truncated) (bacteriophage TP901-1 (host Lactococcus lactis)) (UniProt O48503); experiment: EMSA; conditions: 0.4 nM DNA; EMSA: ~0.4-0.5 nM Cy5 DNA, binding solution of ref 3 (not given), on ice 30 min, 2% agarose, 1x TBE, 0 °C; NMR: 300 mM NaCl, 298 K; native MS: 250 mM …
T1 sequence: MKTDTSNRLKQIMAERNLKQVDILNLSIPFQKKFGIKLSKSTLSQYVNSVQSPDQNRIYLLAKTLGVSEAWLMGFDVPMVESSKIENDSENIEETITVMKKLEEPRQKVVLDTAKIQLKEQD

[4] = test system: CI-NTD (bacteriophage TP901-1 (host Lactococcus lactis)); experiment: EMSA; conditions: 0.4 nM DNA; EMSA: ~0.4-0.5 nM Cy5 DNA, binding solution of ref 3 (not given), on ice 30 min, 2% agarose, 1x TBE, 0 °C; NMR: 300 mM NaCl, 298 K; native MS: 250 mM …
[5] = biological target: the molecule itself; experiment: SEC; HiLoad 26/60 Superdex 75; native molecular weight estimated by comparison with globular protein standards

In the case of “CI∆58, truncated CI repressor from bacteriophage TP901-1 (residues 1–122) (from UniProt O48503 1-122) (domain or fragment)”, the stoichiometry N [1] is reported as 2 and the stoichiometry N [2] is reported as 2.

P5 fragment containing OL was tested, and the Kd [3] was 3 nM and the Kd [4] was 1100 nM.

B1: CI-CTD1, synthetic peptide of the dimerization region of CI repressor from bacteriophage TP901-1 (residues 90–125) (peptide)
peptide: ENIEETITVMKKLEEPRQKVVLDTAKIQLKEQDEQ
notes: CI repressor of Lactococcus lactis bacteriophage TP901-1, dimerization region CTD1; printed as residues 90-125 and as a 35 residues peptide; Delivered as a lyophilized chloride salt, purity 98.45%; solubilised at pH 12 and brought back to pH 7.5; source: synthetic peptide, bought: CASLO
For B1, the “stoichiometry N” value [5] was 4.
